In the RNAGym collection of RNA variant scans (doi:10.7554/elife.90254) one finds self-cleavage data, which are given here for 167 variants.

First the molecules themselves.
B1: LINE1-full (parent)
chain: UACGUAGGUGGUUUUCCCCUGAUAGUGCUAAGGGGGCCUGGAAGUUUGGACUGGGCAGAGCUCAACACAGCGUGGCAAAGUGGCUGUGGCUAGACUGCCUCUCUGGAUUCCUCGUCACUCAGCAGGGCAUCUCUGAGAGAAAUGCC

In the data set the parent is B1. The data set is described as follows: self-cleavage, relative activity (ratio to wild type); higher = more cleavage; in vitro, sequencing; the parent is a self-cleaving ribozyme.
Regarding U73A C118U, the self-cleavage was determined as 1.25.

With G70C U108C, the self-cleavage came out at 0.29.

In the case of U73C G137U, the self-cleavage was determined as 2.46.

In the case of G72A U115C, the self-cleavage stood at 0.9.

As for A69U G126A, the self-cleavage came out at 0.05.

Regarding G70A A141G, the self-cleavage turned out to be 0.17.

As for C71U U87C, the self-cleavage came to 0.04.

As to U73A U132C, the self-cleavage turned out to be 1.53.

For U73A U132A, the self-cleavage came out at 1.73.

On to U73G A142G, for which the self-cleavage amounted to 1.2.

For U73G U115C, the self-cleavage was 2.26.

As for G74U A92G, the self-cleavage is 0.06.

On to G70A A79G, for which the self-cleavage worked out at 0.1.

Consider G72A U102C, for which the self-cleavage is 0.46.

With G74U A78U, the self-cleavage turned out to be 2.2.

As for G72C C90U, the self-cleavage is 0.03.

As for G72A G122A, the self-cleavage came out at 1.6.

G72A A94U: the self-cleavage is 0.06.

With A69G U119A, the self-cleavage worked out at 0.65.

Consider A69G U119C, for which the self-cleavage worked out at 0.64.

As for U73C G125A, the self-cleavage amounted to 0.8.

As for U73C G125C, the self-cleavage worked out at 2.47.

For C71G A140U, the self-cleavage is 0.53.

Take U73A A94C: the self-cleavage was 0.05.

For U73A A94G, the self-cleavage is 0.35.

Take U73C U96A: the self-cleavage turned out to be 0.14.

As to U73C U96G, the self-cleavage came out at 0.19.

Turning to U73C U96C, the self-cleavage was found to be 0.11.

Consider G74A A92U, for which the self-cleavage is 0.1.

With U73C C128A, the self-cleavage amounted to 0.94.

As to C71U U115G, the self-cleavage stood at 1.23.

Regarding C71U U115C, the self-cleavage came to 1.12.

Take C71U C99G: the self-cleavage was 0.12.

Take C71A G122A: the self-cleavage worked out at 0.12.

Take U73C G88A: the self-cleavage worked out at 0.06.

U73A A140U: the self-cleavage came out at 1.88.

Regarding U73A C120U, the self-cleavage came out at 1.79.

In the case of A69U U143A, the self-cleavage worked out at 0.04.

Consider A69U U143C, for which the self-cleavage came out at 0.07.

For U73C A94U, the self-cleavage amounted to 0.69.

Turning to U73C A94C, the self-cleavage turned out to be 0.32.

Consider G74A C84U, for which the self-cleavage is 0.07.

As for G70A A138G, the self-cleavage stood at 0.21.

As to G72A U130C, the self-cleavage came to 1.85.

As to C71A U132C, the self-cleavage was 0.15.

On to G72U A129G, for which the self-cleavage was 1.08.

As to A69U A107G, the self-cleavage turned out to be 0.08.

Consider A69U A107U, for which the self-cleavage amounted to 0.04.

In the case of U73G A124G, the self-cleavage was found to be 0.78.

Consider U73G A124U, for which the self-cleavage was 1.36.

As to A69G U143C, the self-cleavage was found to be 0.5.

For A69G U143A, the self-cleavage turned out to be 0.31.

With G74A U102G, the self-cleavage is 0.56.

Take C71U A92G: the self-cleavage was 0.06.

Take U73A G125A: the self-cleavage is 1.92.

For the variant G72A A78G, the self-cleavage was 1.14.

Consider G72A A78U, for which the self-cleavage came to 1.81.

Regarding C71U C120U, the self-cleavage was 2.76.

With C71G U81A, the self-cleavage was 0.28.

As for C71G U81C, the self-cleavage turned out to be 0.27.

Take G74A U115A: the self-cleavage stood at 1.45.

U73C C146A: the self-cleavage came out at 2.24.

As to U73C C146U, the self-cleavage turned out to be 1.04.

Consider G74A U130G, for which the self-cleavage came to 1.51.

For the variant U73C U134G, the self-cleavage was found to be 1.7.

Consider C71A C128U, for which the self-cleavage is 0.18.

In the case of G72A C90G, the self-cleavage is 0.03.

As for G75A U132A, the self-cleavage was 1.15.

As to G75A A140G, the self-cleavage turned out to be 0.88.

Take G70A: the self-cleavage stood at 0.1.

On to G70C, for which the self-cleavage came out at 0.15.

For G70U, the self-cleavage is 0.05.

Regarding A69U U85C, the self-cleavage stood at 0.

With G74A U96A, the self-cleavage is 0.07.

Consider U73C A92G, for which the self-cleavage turned out to be 0.16.

Regarding U73C A107G, the self-cleavage amounted to 2.23.

For the variant U73C C123U, the self-cleavage amounted to 1.05.

Turning to U73C A121C, the self-cleavage amounted to 0.54.

U73C A121G: the self-cleavage was found to be 2.05.

On to U73C G122A, for which the self-cleavage is 1.19.

Consider U73A A136G, for which the self-cleavage is 1.61.

U73A A78U: the self-cleavage came to 1.94.

Take U73A A78C: the self-cleavage is 2.67.

Regarding U73A A78G, the self-cleavage was 0.34.

As for U73A A124U, the self-cleavage came out at 1.4.

Regarding U73C G139U, the self-cleavage amounted to 2.83.

In the case of U73C A117U, the self-cleavage is 2.34.

Consider U73C A117G, for which the self-cleavage came to 1.23.

On to C71U U132C, for which the self-cleavage is 1.05.

Consider A69U A142G, for which the self-cleavage turned out to be 0.06.

With G75A U104A, the self-cleavage is 0.87.

Regarding G75A U104C, the self-cleavage was found to be 1.43.

Consider C71U A78G, for which the self-cleavage came to 0.41.

As for A69U A129G, the self-cleavage worked out at 0.07.

Take A69U A129U: the self-cleavage was 0.06.

Take U73G U134A: the self-cleavage was 0.88.

On to C71A U108C, for which the self-cleavage was 0.43.

In the case of U73C U81A, the self-cleavage is 2.36.

For U73C U81G, the self-cleavage was 2.04.

Regarding C71U A77G, the self-cleavage came out at 0.86.

Take U73G U87A: the self-cleavage was 0.03.

Take G74A A140G: the self-cleavage came to 1.22.

G74A A140U: the self-cleavage was 1.31.

Consider U73C A138G, for which the self-cleavage was 2.26.

Turning to A69U A92G, the self-cleavage worked out at 0.03.

Consider A69U C71U, for which the self-cleavage is 0.02.

Regarding A69U U81A, the self-cleavage was 0.01.

Turning to G74A A138G, the self-cleavage came to 1.26.

Turning to U73A C84U, the self-cleavage stood at 0.16.

In the case of G70A G80A, the self-cleavage came out at 0.48.

Consider G72A U104A, for which the self-cleavage was found to be 0.93.

Consider G72A G137A, for which the self-cleavage worked out at 0.46.

Turning to U73A U109C, the self-cleavage was found to be 1.05.

As for U73A C111U, the self-cleavage was determined as 1.54.

Turning to G70A A136U, the self-cleavage came out at 0.16.

As for G70A A94G, the self-cleavage came to 0.07.

In the case of G70A U115C, the self-cleavage was 0.16.

For the variant G72A U85C, the self-cleavage came out at 0.08.

As to A69U U96C, the self-cleavage turned out to be 0.03.

On to G74U U130C, for which the self-cleavage came to 1.64.

In the case of C71A C145U, the self-cleavage stood at 0.18.

On to U73C C120A, for which the self-cleavage was found to be 1.97.

On to U73C G86U, for which the self-cleavage is 0.03.

On to U73A U91C, for which the self-cleavage is 0.19.

Consider G74U U91C, for which the self-cleavage was found to be 0.59.

G74U U91A: the self-cleavage was 0.57.

U73A U96A: the self-cleavage was 0.05.

Take U73A U96C: the self-cleavage worked out at 0.1.

On to A69U U119A, for which the self-cleavage was 0.03.

In the case of A69U U119C, the self-cleavage amounted to 0.06.

With G70U A92G, the self-cleavage turned out to be 0.08.

G75A G86C: the self-cleavage worked out at 0.07.

As to A69U U91C, the self-cleavage amounted to 0.06.

For the variant A69U U91A, the self-cleavage was determined as 0.05.

For the variant U73C U108C, the self-cleavage was 0.95.

As to U73A A77G, the self-cleavage amounted to 2.29.

With A69U A138G, the self-cleavage was found to be 0.07.

With C71U A140G, the self-cleavage was determined as 0.9.

Regarding U73C C90G, the self-cleavage is 0.01.

On to U73C C90U, for which the self-cleavage was 0.01.

For C71U A138U, the self-cleavage was 1.04.

As to G72U A142G, the self-cleavage was determined as 0.

On to G70U U112C, for which the self-cleavage was 0.06.

G70U U112A: the self-cleavage is 0.05.

Turning to G74A A124C, the self-cleavage came out at 1.58.

Consider G74A A124G, for which the self-cleavage is 0.51.

Consider C71U A121U, for which the self-cleavage was 0.93.

Regarding U73A C113U, the self-cleavage stood at 1.41.

Regarding C71U U143C, the self-cleavage amounted to 0.64.

With U73A A142U, the self-cleavage stood at 1.41.

On to U73A A142G, for which the self-cleavage worked out at 1.57.

For G70U U119C, the self-cleavage came out at 0.07.

On to G70U U119A, for which the self-cleavage is 0.03.

Turning to U73G U132C, the self-cleavage came to 1.58.

Consider A69U A140G, for which the self-cleavage was 0.04.

Regarding U73C G126U, the self-cleavage was 1.85.

For U73C G126A, the self-cleavage turned out to be 2.44.

As for A69U A141U, the self-cleavage amounted to 0.05.

For the variant A69U A94G, the self-cleavage is 0.02.

U73C G83A: the self-cleavage came to 1.63.

With G72U U134C, the self-cleavage was 1.24.

On to U73C U112C, for which the self-cleavage turned out to be 1.65.

Take U73C U112A: the self-cleavage was 1.41.

For the variant A69U A117G, the self-cleavage worked out at 0.08.

As for U73G U85G, the self-cleavage worked out at 0.06.

Turning to U73C U85A, the self-cleavage turned out to be 0.08.

C71G U112C: the self-cleavage stood at 0.37.
